Source: US20100062978A1 (UNIVERSITY OF TOKYO, published 2010)

B1: 1-236 variant of human SNT-2, C-terminal FLAG-tag (other)
chain: MGSCCSCLNRDSVPDNHPTKFKVTNVDDEGVELGSGVMELTQSELVLHLHRREAVRWPYLCLRRYGYDSNLFSFESGRRCQTGQGIFAFKCSRAEEIFNLLQDLMQCNSINVMEEPVIITRNSHPAELDLPRAPQPPNALGYTVSSFSNGCPGEGPRFSAPRRLSTSSLRHPSLGEESTHALIAPDEQSHTYVNTPASEDDHRRGRHCLQPLPEGQAPFLPQARGPDQRDPQVFLQ
notes: C-terminal-cut-off variant expressed in HEK293 cells; not shown: C-terminal FLAG-tag
B2: 186-328 variant of human SNT-2 (PTB-domain-deleted), C-terminal FLAG-tag (other)
chain: DEQSHTYVNTPASEDDHRRGRHCLQPLPEGQAPFLPQARGPDQRDPQVFLQPGQVKFVLGPTPARRHMVKCQGLCPSLHDPPHHNNNNEAPSECPAQPKCTYENVTGGLWRGAGWRLSPEEPGWNGLAHRRAALLHYENLPPL
notes: not shown: C-terminal FLAG-tag

Legend:
[1] = target: T1, GST-ERK2 fusion protein (glutathione S-transferase fused with human ERK2, from pGEX-4T-1) (human, UniProt P28482 1-360); assay: GST-ERK2 pull-down from HEK293 lysate, immunoblot
T1 construct: Expressed in E. coli BL21 and immobilised on Glutathione Sepharose beads for the pull-down; not shown: glutathione S-transferase (GST) encoded by the vector pGEX-4T-1
T1 sequence (P28482 whole entry, the tested form may be a part): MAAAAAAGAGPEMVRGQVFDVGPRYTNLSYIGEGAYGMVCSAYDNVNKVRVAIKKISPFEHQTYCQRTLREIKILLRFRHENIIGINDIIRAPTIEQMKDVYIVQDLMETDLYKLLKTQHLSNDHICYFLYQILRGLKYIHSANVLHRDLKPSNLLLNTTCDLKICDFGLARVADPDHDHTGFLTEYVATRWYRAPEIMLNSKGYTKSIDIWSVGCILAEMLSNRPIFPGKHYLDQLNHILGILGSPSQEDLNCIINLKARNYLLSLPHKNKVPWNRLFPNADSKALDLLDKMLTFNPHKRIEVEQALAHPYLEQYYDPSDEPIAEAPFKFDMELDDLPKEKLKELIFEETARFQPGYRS

[2] = target: T2, wild-type human EGFR (erbB1) (human, UniProt P00533 25-1210); assay: co-immunoprecipitation with anti-EGFR antibody from HEK293 lysate, immunoblot
T2 construct: whole, on cells; precipitated from cell lysates with anti-EGFR antibody; also called HER1; wild-type EGFR
Protocol: Before EGF treatment, Saos-2 cell or HEK293 cell was kept serum deficiency state for 24 hours.

| Binder | binding result [1] | binding result [2] |
| --- | --- | --- |
| B1 | no binding |  |
| B2 |  | no binding |
